According to the supplement of paper PMC7877785:
± gives the uncertainty stated by the source.

Experiment: self-splicing fitness, log relative to wild type (ln ratio); higher = more splicing; Tetrahymena group I intron in knt gene, E. coli kanamycin selection, DiMSum; sequences stand for … in CUCUCU…GGAGGGAAAAGUUAUCAGGCAUGCACCUGGUAGCUAGUCUUUAAACCAAUAGAUUGCAUCGGUUUAAAAGGCAAGACCGUCAAAUUGCGGGAAAGGGGUCAACAGCCGUUCAGUACCAAGUCUCAGGGGAAACUUUGAGAUGGCCUUGCAAAGGGUAUGGUAAUAAGCUGACGGACAUGGUCCUAACCACGCAGCCAAGUCCUAAGUCAACAGAUCUUCUGUUGAUAUGGAUGCAGUUCACAGACUAAAUGUCGGUCGGGGAAGAUGUAUUCUUCUCAUAAGAUAUAGUCGGACCUCUCCUUAAUGGGAGCUAGCGGAUGAAGUGAUGCAACACUGGAGCCGCUGGGAACUAAUUUGUAUGCGAAAGUAUAUUGAUUAGUUUUGGAGUACUCGUGGUCG
How it was run: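 DiMSum derived fitness as the error-weighted combination of fold changes across replicates, kanamycin versus no kanamycin, normalised to wild type. E. coli BL21(DE3) held the library, which randomised all eight P1ex-region intron nucleotides within the knt kanamycin-resistance gene on pET-22b(+). Six replicate transformations grew overnight at 37°C or 30°C on LB agar with or without 25 μg/mL kanamycin, also containing 100 μg/mL carbenicillin, 50 μM IPTG and 0.2% rhamnose, and pooled colonies were amplicon-sequenced on an Illumina HiSeq 2500.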

Row | Sequence | self-splicing fitness (ln) (30 °C) | self-splicing fitness (ln) (37 °C)
1 | AGUCAGCAAUAUUACGCGUA | -0.295 ± 0.067 | 0.106 ± 0.07
2 | AGUCAGCAAUAUUACGGAAC | -2.87 ± 0.15 | -1.89 ± 0.15
3 | AGUCAGCAAUAUUACGGCGG | -0.596 ± 0.1 | -0.561 ± 0.12
4 | AGUCAGCAAUAUUACGGGUA | -2.02 ± 0.15 | -1.54 ± 0.14
5 | AGUCAGCAAUAUUACGUCCA | -1.25 ± 0.13 | -1.05 ± 0.15
6 | AGUCAGCAAUAUUACGUCGU | -0.476 ± 0.049 | -0.105 ± 0.064
7 | AGUCAGCAAUAUUACGUGAA | -1.5 ± 0.065 | -1.09 ± 0.082
8 | AGUCAGCAAUAUUACGUUCA | -1.5 ± 0.099 | -0.803 ± 0.081
9 | AGUCAGCAAUAUUACGUUCU | -0.318 ± 0.072 | 0.0939 ± 0.11
10 | AGUCAGCAAUAUUACGUUUU | -1.49 ± 0.074 | -0.278 ± 0.088
11 | AGUGAGCAAUAUUACGAAGA | -2.9 ± 0.35 | -1.85 ± 0.18
12 | AGUGAGCAAUAUUACGAAUA |  | -1.17 ± 0.22
13 | AGUGAGCAAUAUUACGACAC | -2.16 ± 0.29 | -1.64 ± 0.17
14 | AGUGAGCAAUAUUACGACAG | -2.83 ± 0.33 | -1.67 ± 0.34
15 | AGUGAGCAAUAUUACGACCU | -1.32 ± 0.15 | -0.41 ± 0.2
16 | AGUGAGCAAUAUUACGACUA | -1.06 ± 0.17 | -0.32 ± 0.15
17 | AGUGAGCAAUAUUACGACUG | -0.0618 ± 0.23 | 0.551 ± 0.31
18 | AGUGAGCAAUAUUACGAGUU | -2.21 ± 0.18 | -1.28 ± 0.18
19 | AGUGAGCAAUAUUACGAUGC | -2.29 ± 0.28 | -3.16 ± 0.43
20 | AGUGAGCAAUAUUACGAUGG | -3.11 ± 0.24 | -2.26 ± 0.25
21 | AGUGAGCAAUAUUACGCAGU | -3.01 ± 0.24 | -0.67 ± 0.2
22 | AGUGAGCAAUAUUACGCCUA | -3 ± 0.3 | -0.802 ± 0.18
23 | AGUGAGCAAUAUUACGCUAU | -3.19 ± 0.23 | -2.43 ± 0.42
24 | AGUGAGCAAUAUUACGCUCU |  | -2.1 ± 0.34

Row | Sequence | self-splicing fitness (ln) (30 °C) | self-splicing fitness (ln) (37 °C)
25 | AGUGAGCAAUAUUACGGUAA |  | -1.43 ± 0.34
26 | AGUGAGCAAUAUUACGGUAU | -3.9 ± 0.23 | -2.31 ± 0.24
27 | AGUGAGCAAUAUUACGGUCC | -0.948 ± 0.12 | -0.741 ± 0.15
28 | AGUGAGCAAUAUUACGGUCU | -0.639 ± 0.11 | -0.463 ± 0.12
29 | AGUGAGCAAUAUUACGUAGA | -3.84 ± 0.23 | -3.38 ± 0.32
30 | AGUUAGCAAUAUUACGAACG | -0.391 ± 0.088 | 0.572 ± 0.14
31 | AGUUAGCAAUAUUACGAAUC | -2.57 ± 0.15 | -2.03 ± 0.21
32 | AGUUAGCAAUAUUACGACUG | -0.637 ± 0.13 | -0.00615 ± 0.18
33 | AGUUAGCAAUAUUACGAGUC | -2.76 ± 0.33 | -3.27 ± 0.47
34 | AGUUAGCAAUAUUACGAGUG | -3.77 ± 0.31 | -1.78 ± 0.25
35 | AGUUAGCAAUAUUACGAUAU | -1.55 ± 0.16 | -0.311 ± 0.19
36 | AGUUAGCAAUAUUACGAUGA | -1.32 ± 0.18 | -0.239 ± 0.16
37 | AGUUAGCAAUAUUACGAUUC | -2.04 ± 0.24 | -0.169 ± 0.26
38 | AGUUAGCAAUAUUACGCAGC | -2.29 ± 0.16 | -1.18 ± 0.16
39 | AGUUAGCAAUAUUACGCCCU | -0.19 ± 0.12 | -0.312 ± 0.15
40 | AGUUAGCAAUAUUACGCGUA | -1.77 ± 0.22 | -0.709 ± 0.15
41 | AGUUAGCAAUAUUACGGACG | -0.568 ± 0.16 | 0.616 ± 0.18
42 | AGUUAGCAAUAUUACGGCCC | -0.803 ± 0.33 | 
43 | AGUUAGCAAUAUUACGGCGU | -0.00974 ± 0.12 | 0.274 ± 0.12
44 | AGUUAGCAAUAUUACGGGCG | -0.303 ± 0.16 | -0.0474 ± 0.17
45 | AGUUAGCAAUAUUACGUACU | -1.16 ± 0.13 | -0.298 ± 0.12
46 | AGUUAGCAAUAUUACGUCAU | -2.48 ± 0.1 | -1.81 ± 0.13
47 | AGUUAGCAAUAUUACGUUAC | -3.26 ± 0.3 | -2.69 ± 0.33
48 | AGUUAGCAAUAUUACGUUCC | -0.837 ± 0.14 | -0.127 ± 0.18

Row | Sequence | self-splicing fitness (ln) (30 °C) | self-splicing fitness (ln) (37 °C)
49 | AGUUAGCAAUAUUACGUUGC | -4.72 ± 0.41 | -2.21 ± 0.21
50 | AGUUAGCAAUAUUACGUUGU | -4.38 ± 0.37 | -3.36 ± 0.37
51 | AGUUAGCAAUAUUACGUUUA | -2.23 ± 0.21 | -1.06 ± 0.21
52 | AUAAAGCAAUAUUACGAACC | -1.28 ± 0.18 | -0.77 ± 0.25
53 | AUAAAGCAAUAUUACGACCC | 0.352 ± 0.21 | 0.804 ± 0.26
54 | AUAAAGCAAUAUUACGACCU | -0.0242 ± 0.097 | 0.381 ± 0.12
55 | AUAAAGCAAUAUUACGAGAA | -2.7 ± 0.19 | -1.85 ± 0.23
56 | AUAAAGCAAUAUUACGAGUA | -1.12 ± 0.086 | -0.205 ± 0.12
57 | AUAAAGCAAUAUUACGAUGG | -2.15 ± 0.13 | -1.03 ± 0.18
58 | AUAAAGCAAUAUUACGAUUA | -0.144 ± 0.073 | 0.683 ± 0.095
59 | AUAAAGCAAUAUUACGCAAG | -1.19 ± 0.12 | -0.742 ± 0.14
60 | AUAAAGCAAUAUUACGCACC | -0.896 ± 0.33 | -1.02 ± 0.29
61 | AUAAAGCAAUAUUACGCAGA | -1.87 ± 0.093 | -0.796 ± 0.11
62 | AUAAAGCAAUAUUACGCCCU | 0.347 ± 0.15 | 0.95 ± 0.18
63 | AUAAAGCAAUAUUACGCGAC | -1.4 ± 0.13 | -0.298 ± 0.13
64 | AUAAAGCAAUAUUACGCUCG | 0.147 ± 0.1 | 0.699 ± 0.13
65 | AUAAAGCAAUAUUACGCUCU | 0.0815 ± 0.089 | 0.0503 ± 0.1
66 | AUAAAGCAAUAUUACGGACC | -0.681 ± 0.16 | -0.941 ± 0.24
67 | AUAAAGCAAUAUUACGGAGG | -3.18 ± 0.18 | -1.67 ± 0.24
68 | AUAAAGCAAUAUUACGGCAU | 0.53 ± 0.098 | -0.0243 ± 0.11
69 | AUAAAGCAAUAUUACGGCCC | 0.659 ± 0.39 | 0.503 ± 0.43
70 | AUAAAGCAAUAUUACGGCCG | -0.128 ± 0.1 | 0.3 ± 0.16
71 | AUAAAGCAAUAUUACGGCUU | -0.708 ± 0.1 | -0.569 ± 0.12
72 | AUAAAGCAAUAUUACGGGCA | -0.434 ± 0.077 | -0.368 ± 0.08

Row | Sequence | self-splicing fitness (ln) (30 °C) | self-splicing fitness (ln) (37 °C)
73 | AUAAAGCAAUAUUACGGGGG | -2.77 ± 0.28 | -2.66 ± 0.28
74 | AUAAAGCAAUAUUACGGUAG | -2.82 ± 0.1 | -1.74 ± 0.12
75 | AUAAAGCAAUAUUACGGUGA | -0.436 ± 0.09 | -0.422 ± 0.11
76 | AUAAAGCAAUAUUACGUCGU | -0.554 ± 0.046 | 0.314 ± 0.064
77 | AUAAAGCAAUAUUACGUGAC | -2.94 ± 0.19 | -1.57 ± 0.18
78 | AUAAAGCAAUAUUACGUGAG | -1.27 ± 0.076 | -1.07 ± 0.12
79 | AUAAAGCAAUAUUACGUGCU | -1.29 ± 0.08 | -0.736 ± 0.11
80 | AUAAAGCAAUAUUACGUUAA | -1.62 ± 0.087 | -1.16 ± 0.12
81 | AUACAGCAAUAUUACGAACA | -1.78 ± 0.17 | 0.157 ± 0.14
82 | AUACAGCAAUAUUACGAAUA | -2.51 ± 0.12 | -0.987 ± 0.11
83 | AUACAGCAAUAUUACGACAU | 0.131 ± 0.011 | 0.288 ± 0.032
84 | AUACAGCAAUAUUACGACGC | -0.948 ± 0.13 | 0.227 ± 0.16
85 | AUACAGCAAUAUUACGAGAU | -3.35 ± 0.14 | -1.18 ± 0.11
86 | AUACAGCAAUAUUACGAUAG | -2.57 ± 0.18 | -3 ± 0.34
87 | AUACAGCAAUAUUACGCAGC | -4.34 ± 0.45 | -1.87 ± 0.19
88 | AUACAGCAAUAUUACGCAUC | -3.69 ± 0.16 | -2.8 ± 0.21
89 | AUACAGCAAUAUUACGCCGC | -3.8 ± 0.27 | -2.19 ± 0.2
90 | AUACAGCAAUAUUACGCCUA | -1.1 ± 0.11 | -0.472 ± 0.12
91 | AUACAGCAAUAUUACGCUGU | -4.13 ± 0.36 | -3.51 ± 0.33
92 | AUACAGCAAUAUUACGGAAG | -3.36 ± 0.14 | -2.21 ± 0.14
93 | AUACAGCAAUAUUACGGAAU | -2.34 ± 0.1 | -1.54 ± 0.13
94 | AUACAGCAAUAUUACGGAGU | -1.72 ± 0.085 | -1.72 ± 0.11
95 | AUACAGCAAUAUUACGGAUG | -2.7 ± 0.2 | -2.05 ± 0.14
96 | AUACAGCAAUAUUACGGCAA | -0.488 ± 0.076 | 0.0743 ± 0.078
